Results from the RNAGym collection of RNA variant scans (doi:10.1021/acssynbio.7b00057).

B1: Pistol ribozyme (parent)
chain: GGGUCGUUGUUCCAUAAUCGCGUGGAUAUGGCACGCAAGUUUCUACCGGGCACCGUAAAUGUCCGACUGGAGCCGUUCGGGCGGCUAUAAACAGACCUCAGGCCCGAAGCGUGGCGGCACCUGCCGCCGGUGGUAAAAAAGAUCGGAAGAGCACACGUCU

Variants of: B1
Experiment: aptazyme ON/OFF ratio, guanine; higher = stronger switching; co-transcriptional cleavage with and without guanine

| Variant | aptazyme ON/OFF ratio |
| --- | --- |
| GGGUCGGACGGGGAUAAUCGCGUGGAUAUGGCACGCAAGUUUCUACCGGGCACCGUAAAUGUCCGACUGGAGCCGUUCGGGCGGCUAUAAACAGACCUCAGGCCCGAAGCGUGGCGGCACCUGCCGCCGGUGGUAAAAAAGAUCGGAAGAGCACACGUCU | 1.05 |
| GGGUCGGACGGGUAUAAUCGCGUGGAUAUGGCACGCAAGUUUCUACCGGGCACCGUAAAUGUCCGACUGGAGCCGUUCGGGCGGCUAUAAACAGACCUCAGGCCCGAAGCGUGGCGGCACCUGCCGCCGGUGGUAAAAAAGAUCGGAAGAGCACACGUCU | 1.01 |
| GGGUCGGACGGGAAUAAUCGCGUGGAUAUGGCACGCAAGUUUCUACCGGGCACCGUAAAUGUCCGACUGGAGCCGUUCGGGCGGCUAUAAACAGACCUCAGGCCCGAAGCGUGGCGGCACCUGCCGCCGGUGGUAAAAAAGAUCGGAAGAGCACACGUCU | 1.05 |
| GGGUCGGACGGCCAUAAUCGCGUGGAUAUGGCACGCAAGUUUCUACCGGGCACCGUAAAUGUCCGACUGGAGCCGUUCGGGCGGCUAUAAACAGACCUCAGGCCCGAAGCGUGGCGGCACCUGCCGCCGGUGGUAAAAAAGAUCGGAAGAGCACACGUCU | 1.14 |
| GGGUCGGACGGACAUAAUCGCGUGGAUAUGGCACGCAAGUUUCUACCGGGCACCGUAAAUGUCCGACUGGAGCCGUUCGGGCGGCUAUAAACAGACCUCAGGCCCGAAGCGUGGCGGCACCUGCCGCCGGUGGUAAAAAAGAUCGGAAGAGCACACGUCU | 1.08 |
| GGGUCGGACGGGCAUAAUCGCGUGGAUAUGGCACGCAAGUUUCUACCGGGCACCGUAAAUGUCCGACUGGAGCCGUUCGGGCGGCUAUAAACAGACCUCAGGCCCGAAGCGUGGCGGCACCUGCCGCCGGUGGUAAAAAAGAUCGGAAGAGCACACGUCU | 1.06 |
| GGGUCGGACGGUCAUAAUCGCGUGGAUAUGGCACGCAAGUUUCUACCGGGCACCGUAAAUGUCCGACUGGAGCCGUUCGGGCGGCUAUAAACAGACCUCAGGCCCGAAGCGUGGCGGCACCUGCCGCCGGUGGUAAAAAAGAUCGGAAGAGCACACGUCU | 1.32 |
| GGGUCGGACGGCAAUAAUCGCGUGGAUAUGGCACGCAAGUUUCUACCGGGCACCGUAAAUGUCCGACUGGAGCCGUUCGGGCGGCUAUAAACAGACCUCAGGCCCGAAGCGUGGCGGCACCUGCCGCCGGUGGUAAAAAAGAUCGGAAGAGCACACGUCU | 1.19 |
| GGGUCGGACGGCUAUAAUCGCGUGGAUAUGGCACGCAAGUUUCUACCGGGCACCGUAAAUGUCCGACUGGAGCCGUUCGGGCGGCUAUAAACAGACCUCAGGCCCGAAGCGUGGCGGCACCUGCCGCCGGUGGUAAAAAAGAUCGGAAGAGCACACGUCU | 1.27 |
| GGGUCGGACGGCGAUAAUCGCGUGGAUAUGGCACGCAAGUUUCUACCGGGCACCGUAAAUGUCCGACUGGAGCCGUUCGGGCGGCUAUAAACAGACCUCAGGCCCGAAGCGUGGCGGCACCUGCCGCCGGUGGUAAAAAAGAUCGGAAGAGCACACGUCU | 1.1 |
| GGGUCGGACGCGCAUAAUCGCGUGGAUAUGGCACGCAAGUUUCUACCGGGCACCGUAAAUGUCCGACUGGAGCCGUUCGGGCGGCUAUAAACAGACCUCAGGCCCGAAGCGUGGCGGCACCUGCCGCCGGUGGUAAAAAAGAUCGGAAGAGCACACGUCU | 1.04 |
| GGGUCGGACGCUCAUAAUCGCGUGGAUAUGGCACGCAAGUUUCUACCGGGCACCGUAAAUGUCCGACUGGAGCCGUUCGGGCGGCUAUAAACAGACCUCAGGCCCGAAGCGUGGCGGCACCUGCCGCCGGUGGUAAAAAAGAUCGGAAGAGCACACGUCU | 1.05 |
| GGGUCGGACGCACAUAAUCGCGUGGAUAUGGCACGCAAGUUUCUACCGGGCACCGUAAAUGUCCGACUGGAGCCGUUCGGGCGGCUAUAAACAGACCUCAGGCCCGAAGCGUGGCGGCACCUGCCGCCGGUGGUAAAAAAGAUCGGAAGAGCACACGUCU | 1.04 |
| GGGUCGGACGCUGAUAAUCGCGUGGAUAUGGCACGCAAGUUUCUACCGGGCACCGUAAAUGUCCGACUGGAGCCGUUCGGGCGGCUAUAAACAGACCUCAGGCCCGAAGCGUGGCGGCACCUGCCGCCGGUGGUAAAAAAGAUCGGAAGAGCACACGUCU | 1.03 |
| GGGUCGGACGCUUAUAAUCGCGUGGAUAUGGCACGCAAGUUUCUACCGGGCACCGUAAAUGUCCGACUGGAGCCGUUCGGGCGGCUAUAAACAGACCUCAGGCCCGAAGCGUGGCGGCACCUGCCGCCGGUGGUAAAAAAGAUCGGAAGAGCACACGUCU | 1.04 |
| GGGUCGGACGCUAAUAAUCGCGUGGAUAUGGCACGCAAGUUUCUACCGGGCACCGUAAAUGUCCGACUGGAGCCGUUCGGGCGGCUAUAAACAGACCUCAGGCCCGAAGCGUGGCGGCACCUGCCGCCGGUGGUAAAAAAGAUCGGAAGAGCACACGUCU | 1.05 |
| GGGUCGGACUAACAUAAUCGCGUGGAUAUGGCACGCAAGUUUCUACCGGGCACCGUAAAUGUCCGACUGGAGCCGUUCGGGCGGCUAUAAACAGACCUCAGGCCCGAAGCGUGGCGGCACCUGCCGCCGGUGGUAAAAAAGAUCGGAAGAGCACACGUCU | 1.03 |
| GGGUCGGACGGAAAUAAUCGCGUGGAUAUGGCACGCAAGUUUCUACCGGGCACCGUAAAUGUCCGACUGGAGCCGUUCGGGCGGCUAUAAACAGACCUCAGGCCCGAAGCGUGGCGGCACCUGCCGCCGGUGGUAAAAAAGAUCGGAAGAGCACACGUCU | 1.05 |

| Variant | aptazyme ON/OFF ratio |
| --- | --- |
| GGGUCGGACGGAGAUAAUCGCGUGGAUAUGGCACGCAAGUUUCUACCGGGCACCGUAAAUGUCCGACUGGAGCCGUUCGGGCGGCUAUAAACAGACCUCAGGCCCGAAGCGUGGCGGCACCUGCCGCCGGUGGUAAAAAAGAUCGGAAGAGCACACGUCU | 1.03 |
| GGGUCGGACGGAUAUAAUCGCGUGGAUAUGGCACGCAAGUUUCUACCGGGCACCGUAAAUGUCCGACUGGAGCCGUUCGGGCGGCUAUAAACAGACCUCAGGCCCGAAGCGUGGCGGCACCUGCCGCCGGUGGUAAAAAAGAUCGGAAGAGCACACGUCU | 1.03 |
| GGGUCGGACGCAAAUAAUCGCGUGGAUAUGGCACGCAAGUUUCUACCGGGCACCGUAAAUGUCCGACUGGAGCCGUUCGGGCGGCUAUAAACAGACCUCAGGCCCGAAGCGUGGCGGCACCUGCCGCCGGUGGUAAAAAAGAUCGGAAGAGCACACGUCU | 1.07 |
| GGGUCGGACGCAUAUAAUCGCGUGGAUAUGGCACGCAAGUUUCUACCGGGCACCGUAAAUGUCCGACUGGAGCCGUUCGGGCGGCUAUAAACAGACCUCAGGCCCGAAGCGUGGCGGCACCUGCCGCCGGUGGUAAAAAAGAUCGGAAGAGCACACGUCU | 1.05 |
| GGGUCGGACGCAGAUAAUCGCGUGGAUAUGGCACGCAAGUUUCUACCGGGCACCGUAAAUGUCCGACUGGAGCCGUUCGGGCGGCUAUAAACAGACCUCAGGCCCGAAGCGUGGCGGCACCUGCCGCCGGUGGUAAAAAAGAUCGGAAGAGCACACGUCU | 1.02 |
| GGGUCGGACGCCAAUAAUCGCGUGGAUAUGGCACGCAAGUUUCUACCGGGCACCGUAAAUGUCCGACUGGAGCCGUUCGGGCGGCUAUAAACAGACCUCAGGCCCGAAGCGUGGCGGCACCUGCCGCCGGUGGUAAAAAAGAUCGGAAGAGCACACGUCU | 1.03 |
| GGGUCGGACGCCUAUAAUCGCGUGGAUAUGGCACGCAAGUUUCUACCGGGCACCGUAAAUGUCCGACUGGAGCCGUUCGGGCGGCUAUAAACAGACCUCAGGCCCGAAGCGUGGCGGCACCUGCCGCCGGUGGUAAAAAAGAUCGGAAGAGCACACGUCU | 1.02 |
| GGGUCGGACGCCGAUAAUCGCGUGGAUAUGGCACGCAAGUUUCUACCGGGCACCGUAAAUGUCCGACUGGAGCCGUUCGGGCGGCUAUAAACAGACCUCAGGCCCGAAGCGUGGCGGCACCUGCCGCCGGUGGUAAAAAAGAUCGGAAGAGCACACGUCU | 1.06 |
| GGGUCGGACGCGUAUAAUCGCGUGGAUAUGGCACGCAAGUUUCUACCGGGCACCGUAAAUGUCCGACUGGAGCCGUUCGGGCGGCUAUAAACAGACCUCAGGCCCGAAGCGUGGCGGCACCUGCCGCCGGUGGUAAAAAAGAUCGGAAGAGCACACGUCU | 1.03 |
| GGGUCGGACGCGGAUAAUCGCGUGGAUAUGGCACGCAAGUUUCUACCGGGCACCGUAAAUGUCCGACUGGAGCCGUUCGGGCGGCUAUAAACAGACCUCAGGCCCGAAGCGUGGCGGCACCUGCCGCCGGUGGUAAAAAAGAUCGGAAGAGCACACGUCU | 1.03 |
| GGGUCGGACGCGAAUAAUCGCGUGGAUAUGGCACGCAAGUUUCUACCGGGCACCGUAAAUGUCCGACUGGAGCCGUUCGGGCGGCUAUAAACAGACCUCAGGCCCGAAGCGUGGCGGCACCUGCCGCCGGUGGUAAAAAAGAUCGGAAGAGCACACGUCU | 1.03 |
| GGGUCGGACUACCAUAAUCGCGUGGAUAUGGCACGCAAGUUUCUACCGGGCACCGUAAAUGUCCGACUGGAGCCGUUCGGGCGGCUAUAAACAGACCUCAGGCCCGAAGCGUGGCGGCACCUGCCGCCGGUGGUAAAAAAGAUCGGAAGAGCACACGUCU | 1.14 |
| GGGUCGGACUAAAAUAAUCGCGUGGAUAUGGCACGCAAGUUUCUACCGGGCACCGUAAAUGUCCGACUGGAGCCGUUCGGGCGGCUAUAAACAGACCUCAGGCCCGAAGCGUGGCGGCACCUGCCGCCGGUGGUAAAAAAGAUCGGAAGAGCACACGUCU | 1.01 |
| GGGUCGGACUAAGAUAAUCGCGUGGAUAUGGCACGCAAGUUUCUACCGGGCACCGUAAAUGUCCGACUGGAGCCGUUCGGGCGGCUAUAAACAGACCUCAGGCCCGAAGCGUGGCGGCACCUGCCGCCGGUGGUAAAAAAGAUCGGAAGAGCACACGUCU | 1.05 |
| GGGUCGGACUAAUAUAAUCGCGUGGAUAUGGCACGCAAGUUUCUACCGGGCACCGUAAAUGUCCGACUGGAGCCGUUCGGGCGGCUAUAAACAGACCUCAGGCCCGAAGCGUGGCGGCACCUGCCGCCGGUGGUAAAAAAGAUCGGAAGAGCACACGUCU | 1.04 |
| GGGUCGGACGGUAAUAAUCGCGUGGAUAUGGCACGCAAGUUUCUACCGGGCACCGUAAAUGUCCGACUGGAGCCGUUCGGGCGGCUAUAAACAGACCUCAGGCCCGAAGCGUGGCGGCACCUGCCGCCGGUGGUAAAAAAGAUCGGAAGAGCACACGUCU | 1.07 |
| GGGUCGGACGGUUAUAAUCGCGUGGAUAUGGCACGCAAGUUUCUACCGGGCACCGUAAAUGUCCGACUGGAGCCGUUCGGGCGGCUAUAAACAGACCUCAGGCCCGAAGCGUGGCGGCACCUGCCGCCGGUGGUAAAAAAGAUCGGAAGAGCACACGUCU | 1.15 |
| GGGUCGGACGGUGAUAAUCGCGUGGAUAUGGCACGCAAGUUUCUACCGGGCACCGUAAAUGUCCGACUGGAGCCGUUCGGGCGGCUAUAAACAGACCUCAGGCCCGAAGCGUGGCGGCACCUGCCGCCGGUGGUAAAAAAGAUCGGAAGAGCACACGUCU | 1.03 |
